This passage reports Km results from publication PMC12694110, “A Multidrug and Toxic Compound Extrusion Transporter, RgMATE6, Facilitates Vacuolar Transport of Acteoside in Rehmannia glutinosa” (Plants, 2025).

What is called Km is the concentration of substrate that gives half-maximal velocity.

Substrate in data set [1]: C[C@@H]1O[C@@H](O[C@@H]2[C@@H](O)[C@H](OCCc3ccc(O)c(O)c3)O[C@H](CO)[C@H]2OC(=O)/C=C/c2ccc(O)c(O)c2)[C@H](O)[C@H](O)[C@H]1O
Kind of data set: uptake into vacuolar membrane vesicles, HPLC, Lineweaver-Burk. In kind it is biochemical, Rehmannia glutinosa. As to conditions: vesicles from transfected N. benthamiana protoplasts, 25 mM Tris-MES pH 8.0, 0.4 M sorbitol, 0.1% BSA, 25 °C, 20 min, substrate 20–120 μM.

Substrate in data set [2]: C[C@@H]1O[C@@H](O[C@@H]2[C@@H](O)[C@H](OCCc3ccc(O)c(O)c3)O[C@H](COC(=O)/C=C/c3ccc(O)c(O)c3)[C@H]2O)[C@H](O)[C@H](O)[C@H]1O
The data set is described as above. As to conditions: vesicles from transfected N. benthamiana protoplasts, 25 mM Tris-MES pH 8.0, 0.4 M sorbitol, 0.1% BSA, 25 °C, 20 min, substrate 20–120 μM. It is filed as biochemical, Rehmannia glutinosa.

B1: RgMATE6 (Rehmannia glutinosa) (protein)
chain: MEDNSKQPLLSYEEEEEEDQVPDLVSVPSRFSFQRLSNFSFFSSFVADDEDIAPIETFSEFMSAFKDESGKLWFLAGPAIFTSLCQYSLGAFTQTFAGHVGTLELAAFSSVIAGLSLGVMLGMGSAVETLCGQAFGAGQHDMLGIYLQRSWIILLATGFILMFLYIFALPFLLVIGQTESISRVAGKLALWMIPQLFAYALNFPTAKFLQAQSKIMAMAWISAAGLGLHVLFSWLLMLKLGWGMAGGAAVLDGSWWFIVIAQLIYIFSGTCGKAWPGFSLRAFSNLWGFVRLSVASAVMMCLETWYFMALVLFAGYLKDAEVAVAALSVCTNILGWTNTIAVGFNAAISVRVSNELGASRPRTAKFSVVVMVISAFLIGLIVSILLLIFQDQYPSLFSDSLDVKQVVYELTPLLAFSIVVNSIQPALSGVAIGAGWQALIAYVNIVCYYVFGVPLGLILGYPLNMGVKGIWYGMVAGTVLQTLILFWIVYRTDWNKEASIAAKRIKYWRGEAEAAKSKGLGEIK
notes: full-length ORF (524 residues, 12 TM helices), C-terminal GFP fusion (pBI121-RgMATE6-GFP), transiently expressed in Nicotiana benthamiana mesophyll protoplasts; vacuolar membrane vesicles
With B1, the Km came to 35.59 µM in data set [1] and 121.98 µM in data set [2].
